Data taken from paper PMC5027247.

Assays:
Experiment in all cases: ITC; 25 °C; 50 mM Tris pH 7.5, 100 mM NaCl, 1 mM EDTA, 1 mM DTT; 1 mM TBK1 fragment in the syringe, 0.1 mM OPTN or NAP1 fragment in the cell; one-site binding model
[1] = molecular target: OPTN L47Q (ITC sample) (human) (UniProt Q96CV9)
[2] = molecular target: OPTN L54Q (ITC sample) (human) (UniProt Q96CV9)
[3] = molecular target: OPTN M44Q (ITC sample) (human) (UniProt Q96CV9)

B1: TBK1 CTD (residues 677–729) (domain or fragment)
chain: YPSSNTLVEMTLGMKKLKEEMEGVVKELAENNHILERFGSLTMDGGLRNVDCL
Work on B1 yielded a Kd [1] of 26 µM, a Kd [2] of 20 µM and a Kd [3] of 22.6 µM.
